Reference: patent publication US20030044911A1

What was measured:
Experiment in all cases: cell-based or functional assay
[1] = molecular target: N-type calcium channel formed by human brain α1B subunit together with rabbit β3 subunit, expressed in Xenopus oocytes (human; rabbit) (UniProt Q00975)
[2] = molecular target: rabbit cardiac α1C subunit, modified cDNA ΔN60 truncated by 60 amino acids at the N-terminal end, expressed in Xenopus oocytes (rabbit) (UniProt P15381)
[3] = molecular target: rat brain α1G subunit expressed from cRNA in Xenopus oocytes (rat) (UniProt O54898)
Sequence of UniProt O54898 (O54898 whole entry): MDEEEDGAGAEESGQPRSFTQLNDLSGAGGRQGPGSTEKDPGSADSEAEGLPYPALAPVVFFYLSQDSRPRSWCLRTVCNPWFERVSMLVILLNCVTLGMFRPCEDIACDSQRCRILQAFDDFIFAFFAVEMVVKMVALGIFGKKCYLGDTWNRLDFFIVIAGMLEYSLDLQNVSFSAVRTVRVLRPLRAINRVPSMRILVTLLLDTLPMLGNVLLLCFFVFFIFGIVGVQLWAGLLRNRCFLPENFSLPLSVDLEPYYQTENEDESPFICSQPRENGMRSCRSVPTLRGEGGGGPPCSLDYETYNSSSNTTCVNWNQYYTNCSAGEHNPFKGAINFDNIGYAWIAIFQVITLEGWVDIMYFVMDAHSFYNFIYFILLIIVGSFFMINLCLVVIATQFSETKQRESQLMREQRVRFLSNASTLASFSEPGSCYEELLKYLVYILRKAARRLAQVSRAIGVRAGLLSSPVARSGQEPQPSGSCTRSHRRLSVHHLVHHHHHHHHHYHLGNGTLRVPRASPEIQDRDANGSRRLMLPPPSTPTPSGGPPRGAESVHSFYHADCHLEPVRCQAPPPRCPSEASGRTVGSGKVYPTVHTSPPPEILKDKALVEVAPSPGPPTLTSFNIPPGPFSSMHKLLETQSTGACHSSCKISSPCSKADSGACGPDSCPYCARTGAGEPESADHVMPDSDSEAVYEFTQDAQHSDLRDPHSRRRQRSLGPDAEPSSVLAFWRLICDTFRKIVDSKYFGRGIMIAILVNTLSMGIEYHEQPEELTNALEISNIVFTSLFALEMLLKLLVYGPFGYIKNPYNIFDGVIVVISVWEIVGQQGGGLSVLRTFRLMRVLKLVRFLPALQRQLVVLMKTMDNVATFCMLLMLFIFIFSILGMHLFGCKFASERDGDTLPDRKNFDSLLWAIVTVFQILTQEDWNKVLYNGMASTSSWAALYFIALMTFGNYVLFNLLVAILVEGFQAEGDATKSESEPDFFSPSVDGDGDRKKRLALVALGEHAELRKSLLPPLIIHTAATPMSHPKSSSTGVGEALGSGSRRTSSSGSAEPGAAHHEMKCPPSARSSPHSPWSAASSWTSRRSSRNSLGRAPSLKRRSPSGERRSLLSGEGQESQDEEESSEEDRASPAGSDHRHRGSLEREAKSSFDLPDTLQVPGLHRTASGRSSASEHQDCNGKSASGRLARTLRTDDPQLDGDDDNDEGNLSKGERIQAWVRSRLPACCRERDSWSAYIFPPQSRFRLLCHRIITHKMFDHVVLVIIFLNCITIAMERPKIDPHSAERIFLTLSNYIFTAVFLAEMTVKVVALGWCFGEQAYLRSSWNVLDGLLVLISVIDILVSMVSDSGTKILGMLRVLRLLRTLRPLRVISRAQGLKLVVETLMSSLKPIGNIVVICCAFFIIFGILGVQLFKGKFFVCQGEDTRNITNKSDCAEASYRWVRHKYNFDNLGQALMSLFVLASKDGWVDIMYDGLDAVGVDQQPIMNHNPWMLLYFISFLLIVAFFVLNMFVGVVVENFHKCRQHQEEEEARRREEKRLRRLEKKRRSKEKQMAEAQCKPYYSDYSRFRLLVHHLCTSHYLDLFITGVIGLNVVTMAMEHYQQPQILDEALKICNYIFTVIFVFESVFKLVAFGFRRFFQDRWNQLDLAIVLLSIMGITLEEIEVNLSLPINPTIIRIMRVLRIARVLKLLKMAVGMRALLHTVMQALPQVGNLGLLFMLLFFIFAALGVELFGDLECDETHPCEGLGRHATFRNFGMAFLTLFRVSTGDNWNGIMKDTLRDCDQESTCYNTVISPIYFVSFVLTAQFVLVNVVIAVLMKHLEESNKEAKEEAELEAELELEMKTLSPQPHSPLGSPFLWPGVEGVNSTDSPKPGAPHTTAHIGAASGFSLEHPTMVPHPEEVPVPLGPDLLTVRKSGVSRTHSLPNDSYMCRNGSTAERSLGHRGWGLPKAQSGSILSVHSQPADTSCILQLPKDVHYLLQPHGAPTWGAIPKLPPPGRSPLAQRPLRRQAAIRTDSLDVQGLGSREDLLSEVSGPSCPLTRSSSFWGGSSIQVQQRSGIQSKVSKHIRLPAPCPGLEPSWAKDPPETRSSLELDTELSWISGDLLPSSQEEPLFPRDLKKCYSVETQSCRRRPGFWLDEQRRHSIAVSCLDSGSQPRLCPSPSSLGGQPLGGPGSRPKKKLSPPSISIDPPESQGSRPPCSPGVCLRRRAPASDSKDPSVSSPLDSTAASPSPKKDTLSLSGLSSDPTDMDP

Sequence of UniProt Q00975 (Q00975 whole entry, chain 1 of 2, the tested form may be a part): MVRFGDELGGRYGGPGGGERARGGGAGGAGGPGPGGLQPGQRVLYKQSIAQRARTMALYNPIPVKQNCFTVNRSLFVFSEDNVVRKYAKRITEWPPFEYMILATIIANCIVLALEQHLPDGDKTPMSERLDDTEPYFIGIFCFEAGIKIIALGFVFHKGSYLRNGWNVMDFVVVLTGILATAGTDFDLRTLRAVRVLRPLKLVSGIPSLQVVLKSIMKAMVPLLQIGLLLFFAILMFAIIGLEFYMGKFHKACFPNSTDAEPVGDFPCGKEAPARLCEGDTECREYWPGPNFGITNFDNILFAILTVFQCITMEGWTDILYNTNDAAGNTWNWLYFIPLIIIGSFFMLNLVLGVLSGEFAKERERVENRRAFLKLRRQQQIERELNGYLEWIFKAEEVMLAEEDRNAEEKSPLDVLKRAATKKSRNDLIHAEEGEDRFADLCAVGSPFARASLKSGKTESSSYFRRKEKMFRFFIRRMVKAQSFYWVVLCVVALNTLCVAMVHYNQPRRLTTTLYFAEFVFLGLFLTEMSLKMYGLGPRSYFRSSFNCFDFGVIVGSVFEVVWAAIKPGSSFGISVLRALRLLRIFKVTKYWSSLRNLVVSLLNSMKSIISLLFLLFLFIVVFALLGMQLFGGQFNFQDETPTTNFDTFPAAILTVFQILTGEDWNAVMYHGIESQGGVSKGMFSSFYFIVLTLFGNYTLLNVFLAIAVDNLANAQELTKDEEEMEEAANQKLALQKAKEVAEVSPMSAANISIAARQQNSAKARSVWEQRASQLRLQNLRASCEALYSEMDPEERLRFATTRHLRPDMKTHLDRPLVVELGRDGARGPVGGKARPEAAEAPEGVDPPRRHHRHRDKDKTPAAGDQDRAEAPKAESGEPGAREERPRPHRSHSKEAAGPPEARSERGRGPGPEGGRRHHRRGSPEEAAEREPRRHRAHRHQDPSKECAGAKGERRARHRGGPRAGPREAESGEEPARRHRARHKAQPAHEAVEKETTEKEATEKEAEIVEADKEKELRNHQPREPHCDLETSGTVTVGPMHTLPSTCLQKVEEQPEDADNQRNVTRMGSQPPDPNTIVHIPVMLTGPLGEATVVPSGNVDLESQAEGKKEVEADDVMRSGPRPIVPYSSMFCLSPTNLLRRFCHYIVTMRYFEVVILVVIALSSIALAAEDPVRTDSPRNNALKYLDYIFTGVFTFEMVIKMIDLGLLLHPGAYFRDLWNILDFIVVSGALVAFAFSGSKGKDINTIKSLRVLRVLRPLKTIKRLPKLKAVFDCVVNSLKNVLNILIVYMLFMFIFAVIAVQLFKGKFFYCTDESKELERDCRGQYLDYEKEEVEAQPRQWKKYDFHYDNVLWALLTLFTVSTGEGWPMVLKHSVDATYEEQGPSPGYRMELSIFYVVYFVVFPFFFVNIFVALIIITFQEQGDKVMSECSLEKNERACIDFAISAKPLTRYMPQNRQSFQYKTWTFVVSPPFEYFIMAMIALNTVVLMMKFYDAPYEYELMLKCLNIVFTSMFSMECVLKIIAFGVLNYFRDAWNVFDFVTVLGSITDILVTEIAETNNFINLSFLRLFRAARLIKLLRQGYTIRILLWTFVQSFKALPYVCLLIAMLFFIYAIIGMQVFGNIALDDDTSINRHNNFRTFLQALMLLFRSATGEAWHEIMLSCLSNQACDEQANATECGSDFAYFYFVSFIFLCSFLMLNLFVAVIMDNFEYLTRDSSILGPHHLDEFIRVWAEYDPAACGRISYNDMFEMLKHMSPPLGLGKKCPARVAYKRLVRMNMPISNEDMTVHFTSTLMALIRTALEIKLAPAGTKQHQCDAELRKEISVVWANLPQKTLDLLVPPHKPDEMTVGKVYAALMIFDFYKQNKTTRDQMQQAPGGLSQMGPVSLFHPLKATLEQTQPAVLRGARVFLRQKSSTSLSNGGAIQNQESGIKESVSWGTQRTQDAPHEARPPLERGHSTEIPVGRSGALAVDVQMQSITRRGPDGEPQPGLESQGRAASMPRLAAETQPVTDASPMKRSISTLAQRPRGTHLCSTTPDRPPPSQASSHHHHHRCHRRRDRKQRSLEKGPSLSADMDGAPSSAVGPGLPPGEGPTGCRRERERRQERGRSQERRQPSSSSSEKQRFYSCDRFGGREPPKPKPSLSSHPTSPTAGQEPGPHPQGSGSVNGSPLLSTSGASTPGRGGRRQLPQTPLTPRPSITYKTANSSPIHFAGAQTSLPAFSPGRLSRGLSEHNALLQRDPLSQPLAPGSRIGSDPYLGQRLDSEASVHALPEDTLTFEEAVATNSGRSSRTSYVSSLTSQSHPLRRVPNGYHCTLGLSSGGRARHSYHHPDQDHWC
Sequence of UniProt Q00975 (P54286 whole entry, chain 2 of 2, further chain, the tested form may be a part): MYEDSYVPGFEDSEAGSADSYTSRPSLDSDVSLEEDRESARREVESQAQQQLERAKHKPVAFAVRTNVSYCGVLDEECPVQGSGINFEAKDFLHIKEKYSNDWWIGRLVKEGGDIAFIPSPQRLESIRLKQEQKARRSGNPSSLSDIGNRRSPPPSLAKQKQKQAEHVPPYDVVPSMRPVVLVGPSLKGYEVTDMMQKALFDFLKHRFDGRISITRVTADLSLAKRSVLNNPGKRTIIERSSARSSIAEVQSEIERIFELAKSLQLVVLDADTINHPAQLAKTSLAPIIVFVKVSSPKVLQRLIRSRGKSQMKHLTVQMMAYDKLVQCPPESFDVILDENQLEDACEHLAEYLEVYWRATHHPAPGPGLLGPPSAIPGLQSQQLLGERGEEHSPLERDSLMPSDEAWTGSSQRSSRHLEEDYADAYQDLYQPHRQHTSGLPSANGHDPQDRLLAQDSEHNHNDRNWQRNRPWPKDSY

Row | current remaining at the end of a 50 ms test pulse to +20 mV, percent of peak current (inactivation) (% of peak current) [1] | fold increase of N-type current magnitude [1] | peak barium current (N-type), two-electrode voltage clamp in Xenopus oocytes [1] | L-type peak current amplitude at +30 mV, α1C/α2δ-2 against α1C alone, Xenopus oocytes [2] | T-type current amplitude, α1G/α2δ-2 against α1G alone, Xenopus oocytes [3] | Substance
1 | 33 | 9 fold | 9.1 µA |  |  | rabbit skeletal muscle α2δ-1 subunit expressed from cRNA in Xenopus oocytes (from UniProt P13806 27-1106)
2 | 59 |  | 7.6 µA | 201% | 176% | α2δ-2 subunit expressed from cRNA in Xenopus oocytes (from UniProt Q9NY47 19-1150)
